Laboratory results as given in publication PMC6155051, “Structures of insect Imp-L2 suggest an alternative strategy for regulating the bioavailability of insulin-like hormones” (Nature Communications, 2018).

Columns and labels:
[1] = biological target: Drosophila imaginal morphogenesis protein-late 2 protein (Imp-L2) (Drosophila melanogaster) (UniProt Q09024); assay: ITC; Imp-L2 (12.8-22.6 uM) in the cell, hormone about tenfold greater injected; 50 mM Tris, 150 mM NaCl, pH 7.4; 25 C; hormone concentrations adjusted to a 1:1 stoichiometry
[2] = biological target: the molecule itself; assay: SEC-MALS; ligand-free Imp-L2, 1 mg/mL, 50 mM Tris pH 7.4, 50 mM NaCl; Superdex S200 10/300
[3] = biological target: Drosophila imaginal morphogenesis protein-late 2 protein (Imp-L2) (Drosophila melanogaster) (UniProt Q09024); assay: ITC; DILP5:Imp-L2 binding as a function of salt: 300 mM NaCl
[4] = biological target: Drosophila imaginal morphogenesis protein-late 2 protein (Imp-L2) (Drosophila melanogaster) (UniProt Q09024); assay: as above; remark: listed apart in the source
[5] = biological target: T1, Drosophila imaginal morphogenesis protein-late 2 protein (Imp-L2) (Drosophila melanogaster, UniProt Q09024 26-267); assay: ITC; 300 mM NaCl (legend says 400 mM)
T1 chain: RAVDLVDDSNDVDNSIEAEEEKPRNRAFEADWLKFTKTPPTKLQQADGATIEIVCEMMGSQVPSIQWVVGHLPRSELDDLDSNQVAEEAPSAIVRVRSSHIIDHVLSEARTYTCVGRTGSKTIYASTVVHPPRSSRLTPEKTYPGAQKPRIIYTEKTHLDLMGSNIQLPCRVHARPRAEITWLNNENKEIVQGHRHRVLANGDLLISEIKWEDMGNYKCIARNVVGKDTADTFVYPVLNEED

Row | Molecule | Kd [1] | stoichiometry N [2] | Kd [3] | Kd [4] | Kd [5]
1 | Insulin X14 (ProB28Asp), fully monomeric mutant of human insulin (ligand) | 135000 pM |  |  |  | 
2 | Drosophila imaginal morphogenesis protein-late 2 protein (Imp-L2) (natural protein, Drosophila melanogaster, UniProt Q09024 26-267, looked up, signal peptide in the construct: full-length Drosophila Imp-L2 with the native signal peptide, secreted into the medium; After 3C cleavage, residues of the protease site should remain at the C-terminus (surmised); A selenomethionine-labelled form was also made; the apo structure was solved by MAD; also called Dm Imp-L2; apo-Imp-L2; source: baculovirus-infected Sf9 cells, purified from conditioned …) RAVDLVDDSNDVDNSIEAEEEKPRNRAFEADWLKFTKTPPTKLQQADGATIEIVCEMMGSQVPSIQWVVGHLPRSELDDLDSNQVAEEAPSAIVRVRSSHIIDHVLSEARTYTCVGRTGSKTIYASTVVHPPRSSRLTPEKTYPGAQKPRIIYTEKTHLDLMGSNIQLPCRVHARPRAEITWLNNENKEIVQGHRHRVLANGDLLISEIKWEDMGNYKCIARNVVGKDTADTFVYPVLNEED |  | 2 |  |  | 
3 | Drosophila insulin-like peptide 5, C4 variant (B2-B29) (ligand) chain 1: NSLRACGPALMDMLRVACPNGFNSMFAK chain 2: DFRGVVDSCCRNSCSFSTLRAYCDS | 8000 pM |  | 1 pM | 5 pM | 5.4 pM
